The source of these data is patent US20120213699A1 (BOARD OF TRUSTEES OF THE UNIVERSITY OF ILLINOIS, published 2012).

In this test the target is T1, BSA (UniProt P02769 25-607).
T1 construct: Negative control coating; also called bovine serum albumin
The experiment in a line: phage ELISA on coated plates, anti-M13 peroxidase.

T1 sequence (P02769 25-607 limits assumed): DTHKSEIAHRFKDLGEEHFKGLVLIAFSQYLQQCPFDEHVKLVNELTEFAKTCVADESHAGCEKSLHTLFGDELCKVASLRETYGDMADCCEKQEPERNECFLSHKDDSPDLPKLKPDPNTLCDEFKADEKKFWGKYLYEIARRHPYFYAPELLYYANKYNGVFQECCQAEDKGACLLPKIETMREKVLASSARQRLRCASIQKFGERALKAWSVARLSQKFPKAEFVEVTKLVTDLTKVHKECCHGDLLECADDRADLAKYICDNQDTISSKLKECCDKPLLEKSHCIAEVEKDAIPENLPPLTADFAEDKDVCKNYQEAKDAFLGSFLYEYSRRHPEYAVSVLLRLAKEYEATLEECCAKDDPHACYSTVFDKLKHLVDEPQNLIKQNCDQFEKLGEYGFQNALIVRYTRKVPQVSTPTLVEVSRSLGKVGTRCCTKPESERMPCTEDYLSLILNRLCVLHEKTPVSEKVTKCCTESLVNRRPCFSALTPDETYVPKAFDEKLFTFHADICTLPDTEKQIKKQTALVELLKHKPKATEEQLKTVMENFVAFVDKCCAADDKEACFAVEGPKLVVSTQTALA
Protocol: Phage ELISA on ACE-coated plates. Purified phages after 1st round of selection were taken for analysis in ELISA. […] For that, 96 well plate was coated with human and rat ACEs as a positive controls, and bovine ACE and BSA (5 ug/ml) as a negative controls. Plates were blocked for 30 min with 2% non-fat dry milk, and phages diluted in the milk were applied to the plates. After 30 min incubation with shaking and another 1.5 hours without shaking, unbound phages were washed with PBS/0.05% Tween 20 and anti-M13 antibodies conjugated with peroxidase (Pharmacia Biotech) diluted 1/2000 dilution in the 2% non-fat dry milk were added. After intensive washing with PBS/0.05% Tween 20 plates were developed with 1-step 3,3′5,5′-Tetramethyl-benzidine (TBM) substrate for ELISA and read at OD620 or at OD450 after reaction was stopped with 3N HCl.
For the assay 96 well plates were coated with human and rat ACEs as positive controls and with bovine ACE and BSA (5 μg/ml) as negative controls. Plates were blocked for 30 min with 2% non-fat dry milk and the phages diluted in milk were applied to the plates. […] After Intensive washing with PBS/Tween 20 the plates were developed with 1-step TBM substrate for ELISA and read at 620 nm or 450 nm after the reaction was stopped with 3N HCl.

B1: scFv 9B9 expressed on the phage surface (phages with the λ fragment) (scFv)
scFv: QVQLKESGPGLVAPSQSLSITCTVSGFSLTTYGVHWVRQPPGKGLEWLGVIWGGGNTNYNSALMSRLNITKDNSKRQVFLKMNSLQADDTGMYYCARGWDSWGQGTTLTVSSAKTTPPKLEEGEFSEARVQAVVTQESALTTSPGETVTLTCRSSTGAVTTNNYANWVQENPDHLFTGLIDGTNTRSPGVPARFSGSLIGDKAALTITGAQTEDEAIYFCALWYSNHWVFGGGTKLTVLGQ
notes: also called scFv 9B9 phages; 9B9 scFv phages; not shown: phage coat protein fusion partner from phagemid pSEX 81
As to B1, the binding result was “no binding (tested: 5 µg/ml (coating))”.
